Values of other authors as cited in article PMC3128382.

Molecular target: TbpA (Neisseria gonorrhoeae) (UniProt Q01996)
UniProt Q01996, sequence (Q01996 25-915): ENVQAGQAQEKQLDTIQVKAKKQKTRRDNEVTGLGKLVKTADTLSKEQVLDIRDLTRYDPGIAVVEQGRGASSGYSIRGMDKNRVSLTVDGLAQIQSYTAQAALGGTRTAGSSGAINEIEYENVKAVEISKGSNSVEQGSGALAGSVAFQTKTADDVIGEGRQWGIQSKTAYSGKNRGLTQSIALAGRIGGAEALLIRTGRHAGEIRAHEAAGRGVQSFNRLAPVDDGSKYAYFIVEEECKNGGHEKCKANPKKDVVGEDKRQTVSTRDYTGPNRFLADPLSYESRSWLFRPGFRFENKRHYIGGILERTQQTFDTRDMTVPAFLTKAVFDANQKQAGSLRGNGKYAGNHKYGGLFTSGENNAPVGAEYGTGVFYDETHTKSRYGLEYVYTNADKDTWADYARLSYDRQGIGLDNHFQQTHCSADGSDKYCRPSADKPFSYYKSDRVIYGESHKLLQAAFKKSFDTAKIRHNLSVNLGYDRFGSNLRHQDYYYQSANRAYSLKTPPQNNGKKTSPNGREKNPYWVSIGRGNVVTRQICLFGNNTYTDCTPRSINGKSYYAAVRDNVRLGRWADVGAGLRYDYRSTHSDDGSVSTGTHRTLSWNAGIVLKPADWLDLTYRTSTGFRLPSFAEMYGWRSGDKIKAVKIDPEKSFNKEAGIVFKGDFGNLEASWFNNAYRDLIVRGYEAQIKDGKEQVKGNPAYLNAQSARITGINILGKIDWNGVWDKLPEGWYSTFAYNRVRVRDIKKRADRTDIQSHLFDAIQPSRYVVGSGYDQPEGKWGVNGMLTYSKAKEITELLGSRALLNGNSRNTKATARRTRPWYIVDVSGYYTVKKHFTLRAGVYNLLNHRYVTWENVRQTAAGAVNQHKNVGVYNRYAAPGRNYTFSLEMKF

## Transferrin (from UniProt P02787)
  Kd: 10 nM
